This is an account of results in PMC3273814.

This data set relates to T1, Ms6564 (Mycobacterium smegmatis mc2 155), ORF:45299f77.
T1 sequence: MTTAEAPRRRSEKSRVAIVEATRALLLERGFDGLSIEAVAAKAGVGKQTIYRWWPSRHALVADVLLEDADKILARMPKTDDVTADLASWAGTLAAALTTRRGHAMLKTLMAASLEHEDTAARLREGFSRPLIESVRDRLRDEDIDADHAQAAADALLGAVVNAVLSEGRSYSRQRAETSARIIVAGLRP
Description: DNase I footprinting.

For “TTAAATCCGCTGGCCCCGATCACCAGTTTCGTCGCTGTCATAGGCCCTTGCGCTCGTGTCCTCGGGTCATAAACGAGACGGTACGTCTCGTCTTGTGGCAGAGTACGGGGTGTCACTTTTCGTGTAAAGGCCTGCGATGACCACCGCTGAAGCGCCCCGCCGGCGCAGTGAGAAGTCGCGGGTGGCCAT (double strand) [Ms6564p4 (p4-1 / p4-2)]”, the binding result is reported as “binds”.
